{
  "source": "IntAct's records for PubMed 31515488",
  "parents": {"B1": {"name": "Protein DDI1 homolog 1 (Homo sapiens), Q8WTU0 (parent)", "chain": "MLITVYCVRRDLSEVTFSLQVSPDFELRNFKVLCEAESRVPVEEIQIIHMERLLIEDHCSLGSYGLKDGDIVVLLQKDNVGPRAPGRAPNQPRVDFSGIAVPGTSSSRPQHPGQQQQRTPAAQRSQGLASGEKVAGLQGLGSPALIRSMLLSNPHDLSLLKERNPPLAEALLSGSLETFSQVLMEQQREKALREQERLRLYTADPLDREAQAKIEEEIRQQNIEENMNIAIEEAPESFGQVTMLYINCKVNGHPLKAFVDSGAQMTIMSQACAERCNIMRLVDRRWAGVAKGVGTQRIIGRVHLAQIQIEGDFLQCSFSILEDQPMDMLLGLDMLRRHQCSIDLKKNVLVIGTTGTQTYFLPEGELPLCSRMVSGQDESSDKEITHSVMDSGRKEH", "partner": "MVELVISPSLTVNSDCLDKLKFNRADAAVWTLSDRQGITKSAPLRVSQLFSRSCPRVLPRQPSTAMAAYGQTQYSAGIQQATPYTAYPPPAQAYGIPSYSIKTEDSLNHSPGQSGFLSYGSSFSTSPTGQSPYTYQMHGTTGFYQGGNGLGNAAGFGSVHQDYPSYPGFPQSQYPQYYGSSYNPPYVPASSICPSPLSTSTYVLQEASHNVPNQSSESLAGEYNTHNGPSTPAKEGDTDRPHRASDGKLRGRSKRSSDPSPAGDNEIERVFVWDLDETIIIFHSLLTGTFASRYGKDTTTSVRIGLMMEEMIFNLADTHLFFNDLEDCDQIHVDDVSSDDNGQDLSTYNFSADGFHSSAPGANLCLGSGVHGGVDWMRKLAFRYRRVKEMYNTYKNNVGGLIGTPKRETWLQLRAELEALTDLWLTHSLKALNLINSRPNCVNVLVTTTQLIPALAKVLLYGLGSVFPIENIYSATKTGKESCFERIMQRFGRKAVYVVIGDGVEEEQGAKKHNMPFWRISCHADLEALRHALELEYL"}, "B2": {"name": "Paraneoplastic antigen-like protein 5 (Homo sapiens), Q96PV4 (parent)", "chain": "MALTLLEDWCKGMDMDPRKALLIVGIPMECSEVEIQDTVKAGLQPLCAYRVLGRMFRREDNAKAVFIELADTVNYTTLPSHIPGKGGSWEVVVKPRNPDDEFLSRLNYFLKDEGRSMTDVARALGCCSLPAESLDAEVMPQVRSPPLEPPKESMWYRKLKVFSGTASPSPGEETFEDWLEQVTEIMPIWQVSEVEKRRRLLESLRGPALSIMRVLQANNDSITVEQCLDALKQIFGDKEDFRASQFRFLQTSPKIGEKVSTFLLRLEPLLQKAVHKSPLSVRSTDMIRLKHLLARVAMTPALRGKLELLDQRGCPPNFLELMKLIRDEEEWENTEAVMKNKEKPSGRGRGASGRQARAEASVSAPQATVQARSFSDSSPQTIQGGLPPLVKRRRLLGSESTRGEDHGQATYPKAENQTPGREGPQAAGEELGNEAGAGAMSHPKPWET", "partner": "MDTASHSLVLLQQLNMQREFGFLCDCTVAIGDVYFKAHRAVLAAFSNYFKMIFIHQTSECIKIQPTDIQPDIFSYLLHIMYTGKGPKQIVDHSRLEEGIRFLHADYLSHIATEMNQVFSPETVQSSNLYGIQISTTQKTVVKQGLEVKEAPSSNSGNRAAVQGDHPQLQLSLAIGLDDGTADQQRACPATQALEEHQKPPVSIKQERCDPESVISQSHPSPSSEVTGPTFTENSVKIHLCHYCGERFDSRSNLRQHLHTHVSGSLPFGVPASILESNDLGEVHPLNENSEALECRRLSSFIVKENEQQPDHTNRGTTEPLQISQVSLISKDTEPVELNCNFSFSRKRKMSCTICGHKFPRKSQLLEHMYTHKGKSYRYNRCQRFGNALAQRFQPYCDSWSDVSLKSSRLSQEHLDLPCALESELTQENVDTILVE"}},
  "data": [
    {"variants_of": "B1", "settings": "with eya2_human EYA2, O00167", "values": [
      {"variant": "MLITVYCVRRDLSEVTFSLQVSPDFELRNFKVLCEAESRVPVEEIQIIHMERLLIEDHCSLGSYGLKDGDIVVLLQKDNVGPRAPGRAPNQPRVDFSGIAVPGTSSSRPQHPGQQQQRTPAAQRSQGLASGEKVAGLQGLGSPALIRSMLLSNPHDLSLLKERNPPLAEALLSGSLETFSQVLMEQQREKALREQERLRLYTADPLDREAQAKIEEEIRQQNIEENMTIAIEEAPESFGQVTMLYINCKVNGHPLKAFVDSGAQMTIMSQACAERCNIMRLVDRRWAGVAKGVGTQRIIGRVHLAQIQIEGDFLQCSFSILEDQPMDMLLGLDMLRRHQCSIDLKKNVLVIGTTGTQTYFLPEGELPLCSRMVSGQDESSDKEITHSVMDSGRKEH", "note": "[N228T]", "effect of a mutation on the interaction": "with no effect"},
      {"variant": "MLITVYCVRRDLSEVTFSLQVSPDFELRNFKVLCEAESRVPVEEIQIIHMERLLIEDHCSLGAYGLKDGDIVVLLQKDNVGPRAPGRAPNQPRVDFSGIAVPGTSSSRPQHPGQQQQRTPAAQRSQGLASGEKVAGLQGLGSPALIRSMLLSNPHDLSLLKERNPPLAEALLSGSLETFSQVLMEQQREKALREQERLRLYTADPLDREAQAKIEEEIRQQNIEENMNIAIEEAPESFGQVTMLYINCKVNGHPLKAFVDSGAQMTIMSQACAERCNIMRLVDRRWAGVAKGVGTQRIIGRVHLAQIQIEGDFLQCSFSILEDQPMDMLLGLDMLRRHQCSIDLKKNVLVIGTTGTQTYFLPEGELPLCSRMVSGQDESSDKEITHSVMDSGRKEH", "note": "[S63A]", "effect of a mutation on the interaction": "with no effect"},
      {"variant": "MLITVYCVRRDLSEVTFSLQVSPDFELRNFKVLCEAESRVPVEEIQIIHMERLLIEDHCSLGSYGLKDGDIVVLLQKDNVGPRAPGRAPNQPRVDFSGIAVPGTSSSRPQHPGQQQQRTPAAQRSQGLASGEKVAGLQGLGSPALIRSMLLSNPHDLSLLKERNPPLAEALLSGSLETFSQVLMEQQREKALREQERLRLYTADPLDREAQAKIEEEIRQQNIEENMNIAIEEAPESFGQVTMLYINCKVNGHPLKAFVDSGAQMTIMSQACAERCNIMRLVDRRWAGVAKGVGTQRIIGRVHLAQIQIEGDFLQCSFSILENQPMDMLLGLDMLRRHQCSIDLKKNVLVIGTTGTQTYFLPEGELPLCSRMVSGQDESSDKEITHSVMDSGRKEH", "note": "[D323N]", "effect of a mutation on the interaction": "with no effect"}
    ]},
    {"variants_of": "B2", "settings": "with zbt25_human ZBTB25, P24278", "values": [
      {"variant": "L21Q", "effect of a mutation on the interaction": "disrupting interaction strength"},
      {"variant": "R312Q", "effect of a mutation on the interaction": "with no effect"},
      {"variant": "V274M", "effect of a mutation on the interaction": "with no effect"},
      {"variant": "T261A", "effect of a mutation on the interaction": "with no effect"}
    ]}
  ]
}
